Data as given in IntAct's records for PubMed 29039417.

B1: Protein PTHB1 (Homo sapiens), Q3SYG4 (parent)
chain: MSLFKARDWWSTILGDKEEFDQGCLCLANVDNSGNGQDKIIVGSFMGYLRIFSPHPAKTGDGAQAEDLLLEVDLRDPVLQVEVGKFVSGTEMLHLAVLHSRKLCVYSVSGTLGNVEHGNQCQMKLMYEHNLQRTACNMTYGSFGGVKGRDLICIQSMDGMLMVFEQESYAFGRFLPGFLLPGPLAYSSRTDSFLTVSSCQQVESYKYQVLAFATDADKRQETEQQKLGSGKRLVVDWTLNIGEQALDICIVSFNQSASSVFVLGERNFFCLKDNGQIRFMKKLDWSPSCFLPYCSVSEGTINTLIGNHNNMLHIYQDVTLKWATQLPHIPVAVRVGCLHDLKGVIVTLSDDGHLQCSYLGTDPSLFQAPNVQSRELNYDELDVEMKELQKIIKDVNKSQGVWPMTEREDDLNVSVVVSPNFDSVSQATDVEVGTDLVPSVTVKVTLQNRVILQKAKLSVYVQPPLELTCDQFTFEFMTPDLTRTVSFSVYLKRSYTPSELEGNAVVSYSRPTDRNPDGIPRVIQCKFRLPLKLICLPGQPSKTASHKITIDTNKSPVSLLSLFPGFASQSDDDQVNVMGFHFLGGARITVLASKTSQRYRIQSEQFEDLWLITNELILRLQEYFEKQGVKDFACSFSGSIPLQEYFELIDHHFELRINGEKLEELLSERAVQFRAIQRRLLARFKDKTPAPLQHLDTLLDGTYKQVIALADAVEENQGNLFQSFTRLKSATHLVILLIALWQKLSADQVAILEAAFLPLQEDTQELGWEETVDAAISHLLKTCLSKSSKEQALNLNSQLNIPKDTSQLKKHITLLCDRLSKGGRLCLSTDAAAPQTMVMPGGCTTIPESDLEERSVEQDSTELFTNHRHLTAETPRPEVSPLQGVSE
partner: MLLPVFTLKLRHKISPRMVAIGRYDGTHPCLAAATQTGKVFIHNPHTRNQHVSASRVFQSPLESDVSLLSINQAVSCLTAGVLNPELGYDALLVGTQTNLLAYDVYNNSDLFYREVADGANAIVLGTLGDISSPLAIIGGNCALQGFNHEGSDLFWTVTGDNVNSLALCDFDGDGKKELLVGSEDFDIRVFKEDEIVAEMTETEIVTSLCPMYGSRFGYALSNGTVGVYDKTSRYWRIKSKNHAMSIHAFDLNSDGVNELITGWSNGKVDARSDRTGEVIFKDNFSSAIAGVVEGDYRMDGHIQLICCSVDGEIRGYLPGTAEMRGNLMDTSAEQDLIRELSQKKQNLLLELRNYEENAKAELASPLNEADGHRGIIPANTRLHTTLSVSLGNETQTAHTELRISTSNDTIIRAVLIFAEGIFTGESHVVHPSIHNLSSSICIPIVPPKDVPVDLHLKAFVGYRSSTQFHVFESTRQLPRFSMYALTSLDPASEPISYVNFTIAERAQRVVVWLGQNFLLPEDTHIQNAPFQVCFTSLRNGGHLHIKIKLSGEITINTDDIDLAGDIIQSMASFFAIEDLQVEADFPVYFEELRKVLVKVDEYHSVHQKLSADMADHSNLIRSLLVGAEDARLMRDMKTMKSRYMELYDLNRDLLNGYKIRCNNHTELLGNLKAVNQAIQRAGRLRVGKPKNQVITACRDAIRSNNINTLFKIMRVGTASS

Variants of: B1
Settings: with bbs2_human BBS2, Q9BXC9

Variant | effect of a mutation on the interaction
A739K | with no effect
A739E | with no effect
D700E | with no effect
D700K | with no effect
D700A | with no effect
T702E | with no effect
T702C | disrupting interaction strength
T702A | with no effect
T702K | with no effect
Q722E | with no effect
Q722A | with no effect
Q722T | disrupting interaction strength
Q722K | with no effect
F724E | with no effect
F724K | with no effect
F724A | with no effect
F721K | with no effect
F721E | with no effect
F721A | with no effect
T697E | with no effect
T697C | disrupting interaction strength
T697K | with no effect

Variant | effect of a mutation on the interaction
T697A | with no effect
S723E | with no effect
S723A | with no effect
S723K | with no effect
S723P | disrupting interaction strength
A712E | with no effect
A712K | with no effect
N716E | with no effect
N716K | with no effect
N716A | disrupting interaction strength
L737A | with no effect
L737E | with no effect
L737K | with no effect
L727A | with no effect
L727E | with no effect
L727K | with no effect
I738A | with no effect
I738E | with no effect
I738K | with no effect
N719A | with no effect
N719E | with no effect
N719K | with no effect

Variant | effect of a mutation on the interaction
A730K | with no effect
A730E | with no effect
E714K | with no effect
E714A | with no effect
K728A | with no effect
K728E | with no effect
L744E | with no effect
L744A | with no effect
L744K | with no effect
L744F | disrupting interaction strength
D711E | with no effect
D711K | with no effect
D711A | with no effect
H732E | with no effect
H732K | with no effect
H732A | with no effect
A710K | with no effect
A710E | with no effect
T731K | with no effect
T731E | with no effect
T731A | with no effect
L699K | disrupting interaction strength

Variant | effect of a mutation on the interaction
L699E | with no effect
L699A | with no effect
L692E | with no effect
L692K | with no effect
L692A | with no effect
V706E | with no effect
V706A | with no effect
V706K | with no effect
S745E | with no effect
S745K | with no effect
S745A | with no effect
K743A | with no effect
K743E | with no effect
L709K | with no effect
L709E | with no effect
L709A | with no effect
T725E | with no effect
T725K | with no effect
T725A | with no effect
L698K | with no effect
L698E | with no effect
L698A | with no effect
